The target of the assay is SARS-CoV preparation (Frankfurt 1 strain) (SARS-CoV strain Frankfurt 1).

B1: SC03-006 (scFv)
scFv: SMAEVQLVESGGGLVQPGGSLRLSCAASGFTFSGYPMHWVRQAPGKGLEWVAVISYDGSNKYYADSVKGRFTISRDNSKNTLYLQMNSLRAEDTAVYYCAKDGSPRTPSFDYWGQGTLVTVLEGTGGSGGTGSGTGTSELDIQMTQSPHSLSASVGDRVTITCRASQGISNYLAWYQQKPGKVPKLLIYAASTLQSGVPSRFSGSGSGTDFTLTISSLQPEDVGVYYCQQRFRTPVTFGQGTKLEIKRAAA
On to B1, for which the OD492nm is 1.06 OD492nm.

B2: SC03-015 (scFv)
scFv: AMAEVQLVESGGGVVRPGGSLRLSCAASGFTFDDYGMSWVRQAPGKGLEWVSGINWNGGSTGYADSVKGRFTISRDNAKNSLYLQMNSLRAEDTAVYYCARGLSLRPWGQGTLVTVSRGGGGSGGGGSGGGGSSELTQDPAVSVALGQTVRITCQGDSLRSYYASWYQQKPGQAPVLVIYGKNNRPSGIPDRFSGSSSGNTASLTITGAQAEDEADYYCNSRDSSGNHVVFGGGTKLTVLGAAA
Molecule B2 yielded an OD492nm of 0.796 OD492nm.
